We go through 22 sequences from the DeepSol protein solubility set.

A short description of this data set: soluble on expression in E. coli; label from the status in PepcDB or PDB records.
On to “MTAPSLLIAGCGDIGSRLATRLLPHGWTVHGLRRTVSELPAGVHGVAGDLFDTRKPALWPAAALDYVVYCATPSKRDEAGYRMAYVEGLRNVLSWLEQTGQRPKRLIFVSSSGVYGQQNGEWVDEDSITEPANYTGTVMLEAEQLALNSGLPATAVRLTGIYGPGRSDLSNRVRQGHSVRIDPPVYANRIHADDAASLLEHLLQADQRGVALESCYLGVDDDPAALADVVAWIREYLGVTEWSEEVSVQRVGSKRCSNARARALGWTPMYPDYRAGYAALLG”, for which the “soluble on expression in E. coli” value is recorded as “not soluble”.

In the case of “MAEIEKTVLVGYSASQMFRLVDTVENYPDFLPWCSGASMKLMEDNETAQATVHIDYHHIKHSFTTKNTRHPPELIKMELVEGPFEKLNGYWRFIPLSENACKIEFQLHYTFSHKLLEKLVGPVFYVIANNFVEAFVEQAEKIYGPSILEHHHHHH”, the “soluble on expression in E. coli” value is listed as “soluble”.

For the sequence “MPAYPREGKIIQIHSYKHNGTIHRIWQETVVLKGTPSYVIGGNNKTLVMEADGRTWVTREPAICFFHAKHWFNIIAMIREDGVYYYCNLSSPFVWDEEALKYIDYDLDIKVFPDMTYMLLDEDEYERHRREMHYPDVIDRILKNNVQKLIGWIKERKGPFAPEFIDKWYGVFQAYQT”, the “soluble on expression in E. coli” value was “not soluble”.

Turning to “GEIEFIESSKDAGFPVINTPSKTKLEPSVFHQVFEGNKEPAVLRSGDPRLKANFEEAIFSKYIGNVNTHVDEYMLEAVDHYAGQLATLDISTEPMKLEDAVYGTEGLEALDLTTSAGYPYVALGIKKRDILSKKTKDLTKLKECMDKYGLNLPMVTYVKDELRSIEKVAKGKSRLIEASSLNDSVAMRQTFGNLYKTFHLNPGVVTGSAVGCDPDLFWSKIPVMLDGHLIAFDYSGYDASLSPVWFACLKMLLEKLGYTHKETNYIDYLCNSHHLYRDKHYFVRGGMPSGCSGTSIFNSMINNIIIRTLMLKVYKGIDLDQFRMIAYGDDVIASYPWPIDASLLAEAGKGYGLIMTPADKGECFNEVTWTNATFLKRYFRADEQYPFLVHPVMPMKDIHESIRWTKDPKNTQDHVRSLCLLAWHNGEHEYEEFIRKIRSVPVGRCLTLPAFSTLRRKWLDSFHHHHHH”, the “soluble on expression in E. coli” value was “soluble”.

With “MYSPQTFFLQEVKGQKPDGLGGLIDDWGLFKEVSGYIDLVTGTDETTKQNAFVEESTHILIIPEFIEGITDNMRVVDQTNRYYDITYSDNPVGIKHHNEIYLKFEGVLSGEE”, the “soluble on expression in E. coli” value is on record as “not soluble”.

Turning to “SSLVRRIISTAKAPAAIGPYSQAVLVDRTIYISGQLGMDPASGQLVPGGVVEEAKQALTNIGEILKAAGCDFTNVVKATVLLADINDFSAVNDVYKQYFQSSFPARAAYQVAALPKGGRVEIEAIAVQGPLTTASL”, the “soluble on expression in E. coli” value is on record as “soluble”.

With “MLLCDTNIWLALALSGHVHHRASRAWLDTINAPGVIHFCRATQQSLLRLLTNRTVLGAYGSPPLTNREAWAAYAAFLDDDRIVLAGAEPDGLEAQWRAFAVRQSPAPKVWMDAYLAAFALTGGFELVTTDTAFTQYGGIELRLLAK”, the “soluble on expression in E. coli” value is “not soluble”.

For the sequence “MPDPLTVSGSFSPEDVKHIGLKSIISGQIIKKYSQNQNLRSIKNVKLIIPSKAVSVDRNERTLFIPCLKLLLNYRFSNNFNKVSQIEIDNVYAYVAVVFPDEEPESFGYYIGVDRNTMGHIAVVADPDSGKVWKLGKMRYHIHQKYQNIMNRLSNSGKNKQLKAVKKREKNIVKDLNHKISRKIVDLALYNGSGIKLENLKGIRKLNSKSNGAGKGKPDQNKDKKLTCSNEYSLNNWSFLQLQQFIEYKARLRGVEVVYIDPYATSKKCSRCGHTGNRQSKRFECPCCGHVDHADVNAAFNIALTPKDTGQFSAERDAGKGRTDTPQKVLARNAFSKRAAREKASPQFAWEVCQFLTLEHHHHHH”, the “soluble on expression in E. coli” value is “not soluble”.

Consider “SKKEHVLHCQFSAWYPFFRGVTIKSVILPLPQNVKDYLLDDGTLVVSGRDDPPTHSQPDSDDEAEEIQWSDDENTATLTAPEFPEFATKVQEAINSLGGSVFPKLNWSAPRDAYWIAMNSSLKCKTLSDIFLLFKSSDFITRDFTQPFIHCTDDSPDPCIEYELVLRKWCELIPGAEFRCFVKENKLIGISQRDYTQYYDHISKQKEEIRRCIQDFFKKHIQYKFLDEDFVFDIYRDSRGKVWLIDFNPFGEVTDSLLFTWEELISENNLNGDFSEVDAQEQDSPAFRCTNSEVTVQPSPYLSYRLPKDFVDLSTGEDAHKLIDFLKLKRNQQEDD”, for which the “soluble on expression in E. coli” value is listed as “soluble”.

On to “MDPALAAQMSEAVAEKMLQYRRDTAGWKICREGNGVSVSWRPSVEFPGNLYRGEGIVYGTLEEVWDCVKPAVGGLRVKWDENVTGFEIIQSITDTLCVSRTSTPSAAMKLISPRDFVDLVLVKRYEDGTISSNATHVEHPLCPPKPGFVRGFNHPCGCFCEPLPGEPTKTNLVTFFHTDLSGYLPQNVVDSFFPRSMTRFYANLQKAVKQFHE”, for which the “soluble on expression in E. coli” value is given as “soluble”.

Regarding “MTSKTNMTSNKFAYDFFPWSNDTNSSQQIKNIKPPPKRSNRPTKRTTFTSEQVTLLELEFAKNEYICKDRRGELAQTIELTECQVKTWFQNRRTKKRSSELKFGTACSENKTSTKWYYDSKLLFCYPYKYLGCGEGSNSFESNENCLESCKPADQFSCGGNTGPDGVCFAHGDQGCKKGTVCVMGGMVGFCCDKKIQDEWNKENSPKCLKGQVVQFKQWFGMTPLIGRSCSHNFCPEKSTCVQGKWTAYCCQ”, the “soluble on expression in E. coli” value is “soluble”.

As to “SLSRRGIDFLNDWIAEHHPDTLTEDPTAIADLADQLMAAAEKQGLSRRDISEEVGSVFQVILEAMQNRSGGRLYSSRWG”, the “soluble on expression in E. coli” value is given as “soluble”.

Consider “MSLSNTGINCPFDCGLCPRHRSHTSLINIVLTNRCNLSCWYCFFYAREGEPIYEPTLEQIRMMLRNAKKEHPIGANAVQFTGGEPTLRDDLIEIIKIAKEEGYDHIQLNTDGIKLAFDPELVKKLREAGVNTLYLSYDGMTPQTNWKNHWEIPLIFENVRKAGGPGIVLVPTLIRNINDHEAGAIINFGLNHLDIVRGVNFQPISLVGRVPRKERQRFRITIAGAIKKIEEQTNGVIAKEDWYPIPIAGHIARFFEAFTGRKYYMTSHFACGAATYVFLDREEKKVIPIPRFIDVDGFVEFLVEKAEEIEKARFKSLAKLKAIGETIFVKFKQFYDEKNAPKGLDVLGLIKNAFVHGTYDALGKFHMNTLFIGMMHFMDEYNYDVERVERCVIHYAMPDGRIVPFCTFNVIPEIYRDKVQRQFSYSWEEWKKLHPDEGHHHHHH”, for which the “soluble on expression in E. coli” value is “not soluble”.

As to “MGISTFFLSVTLFTVNRTCDLLTPPPWYPITVKNTHHTSRHRSIFFILSVMIGKGTREDVQLSLSSLFQGVVMIVGQNPQAPSDLGIEGGERAQGQNAHSVHGPGLQTERGGSQLQMVGHPLRELLEHHHHHH”, the “soluble on expression in E. coli” value is listed as “not soluble”.

“MGSDKIHHHHHHMKIAQIAPLFEAVPPRLYGGTERVVASICDALVKAGHQVDLYASGDSQSKARLIPCRERALRLDPAPLKSDIAAHYTLLDEVRRHAGEYDILHFHTDMLHFPFFEPIASKTLTTLHGRLDMADLPNAFKRWRQFPLVSISNDQRRALPGANWAGTVYHGLDPALYRFNPNPQGGYLAFLGRISPEKRPDRAIAIARKAGIPLKIAAKVDAADLNYYNDVIKPLLNQADVEFIGEITDAQKNDFLGNALALLFPVDWPEPFGLVMIEAMACGTPVIAWRCGSVPEIIEPGRNGFIVTDEHQAAAACHAATTLDRAKVREAFDMRFTSDVMAEHYLKLYKRLAASANDDNLMESQVG”: the “soluble on expression in E. coli” value is given as “not soluble”.

For “GSHMAAAKQDVKVFSEDGTSKVVEILADMTARDLCQLLVYKSHSVDDNSWTLVEHHPHLGLERCLEDHELVVQVESTMASESKFLFRKNYAKYEFFKNPMNFFPEQMVTWSQQSNGSQTQLLQNFLNSSSSPEIQGFLHVKELGKKSWKKLYVCLRRSGLYCSTKGTSAAPRHLQLLADLEDSNIFSLIAGRKQYNAPTDHGLCIKPNKVRNETKELRLLCAEDEQTRTSWMTAFRLLKYGMLLYQNYRIPQQRKA”, the “soluble on expression in E. coli” value is listed as “soluble”.

For the sequence “SESLRIIFAGTPDFAARHLDALLSSGHNVVGVFTQPDRPAGRGKKLMPSPVKVLAEEKGLPVFQPVSLRPQENQQLVAELQADVMVVVAYGLILPKAVLEMPRLGCINVHGSLLPRWRGAAPIQRSLWAGDAETGVTIMQMDVGLDTGDMLYKLSCPITAEDTSGTLYDKLAELGPQGLITTLKQLADGTAKPEVQDETLVTYAEKLSKEEARIDWSLSAAQLERCIRAFNPWPMSWLEIEGQPVKVWKASVIDTATNAAPGTILEANKQGIQVATGDGILNLLSLQPAGKKAMSAQDLLNSRREWFVPGNRLV”, the “soluble on expression in E. coli” value is given as “soluble”.

Take “VSPRPGPAGRGPAPCRCADLHSLCVDSHALRRDGMRFLHTADWQLGMTRHFLAGDAQPRYSAARRDAVAGLKALAADVGAEFVVVAGDVFEHNQLAPQIVGQSLEAMRVIGLPVYLLPGNHDPLDASSVYTSTLFRAERPDNVVVLDRAGVHEVRPGVQIVAAPWRSKAPTTDPVAEVLAGLPTDAAIRLLVAHGGVDALDPDHDKPSLIRLAALDDALTRQAIHYVALGDKHSLTQVGSSGRVWYSGAPEVTNFDDVEPDPGHVLVVDIDESDPRHPVTVDARRIGRWRFVTLHHQVDTSRDIADLDLNLDLMTDKDRTVVRLALTGSLTVTDRAALDTCLDKYARLFAWLGLWERHTDLAVIPVDAEFTDLGIGGFAAAAVDELVATARGGDDESAVDAQAALALLLRLADRGAA”: the “soluble on expression in E. coli” value is listed as “not soluble”.

For “EESPFVGNPGNITGARGLTGTLRCQLQVQGEPPEVHWLRDGQILELADSTQTQVPLGEDEQDDWIVVSQLRITSLQLSDTGQYQCLVFLGHQTFVSQPGYVGLEGLPYFLEEPEDRTVAANTPFNLSCQAQGPPEPVDLLWLQDAVPLATAPGHGPQRSLHVPGLNKTSSFSCEAHNAKGVTTSRTATITVLPQQ”, the “soluble on expression in E. coli” value is reported as “soluble”.

“DWNNQSIVKTGERQHGIHIQGSDPGGVRTASGTTIKVSGRQAQGILLENPAAELQFRNGSVTSSGQLSDDGIRRFLGTVTVKAGKLVADHATLANVGDTWDDDGIALYVAGEQAQASIADSTLQGAGGVQIERGANVTVQRSAIVDGGLHIGALQSLQPEDLPPSRVVLRDTNVTAVPASGAPAAVSVLGASELTLDGGHITGGRAAGVAAMQGAVVHLQRATIRRGDALAGGAVPGGAVPGGAVPGGFGPGGFGPVLDGWYGVDVSGSSVELAQSIVEAPELGAAIRVGRGARVTVPGGSLSAPHGNVIETGGARRFAPQAAPLSITLQAGAHAQGKALLYRVLPEPVKLTLTGGADAQGDIVATELPSIPGTSIGPLDVALASQARWTGATRAVDSLSIDNATWVMTDNSNVGALRLASDGSVDFQQPAEAGRFKVLTVNTLAGSGLFRMNVFADLGLSDKLVVMQDASGQHRLWVRNSGSEPASANTLLLVQTPLGSAATFTLANKDGKVDIGTYRYRLAANGNGQWSLVGAKAPP”: the “soluble on expression in E. coli” value is reported as “soluble”.

As for “AFYINVVPDMVGGRLSSHDRDVLGLARQLAGAEGAVLAVVFGEHKETAFDSAGVDRLLLLDGNESDGYSPEQRVQGLRAVDNQFGPQRWVFPDSRTGGGELGRRFAASLGERPATRVWQVKGEHCTSRAGA”, the “soluble on expression in E. coli” value is on record as “not soluble”.

Consider “GPGSMPQSAVMNVMVQAAMKAGRSLVRDYGEVQNLQVSLKGPADYVSQADRKAEKIIFNELSKARPKFGFLMEESEEIIGEDSQHRFIVDPLDGTTNFLHGIPFFAVSIALESQGKIVAGVIYNPINDELFTAERGSGAFFNDRRCRVSARRRLEDCVIATGMPHLGRPGHGTYLIELRNVMAEVSGIRRFGTAALDLAYVAAGRTDGFWEDNLQIWDMAAGILMVREAGGFVTDKEGGNDIFRKKNIIAGNEHIRIKLERALKKGI”, for which the “soluble on expression in E. coli” value was “soluble”.
